Results taken from patent US12338277.

What was measured:
Assay in all cases: cell-based or functional assay
[1] = biological target: Murine leukemia virus (MuLV) envelope on pseudovirus (Murine leukemia virus)
[2] = biological target: HIV-1 envelope of pseudovirus Ce2010_F5 (HIV-1)
[3] = biological target: HIV-1 envelope of pseudovirus Du156.12 (HIV-1)
[4] = biological target: HIV-1 Env of pseudovirus T255-34 (HIV-1)
[5] = biological target: HIV-1 envelope of pseudovirus Q842.d12 (HIV-1)
[6] = biological target: HIV-1 Env of pseudovirus C1080.c03 (HIV-1)
[7] = biological target: HIV-1 Env of pseudovirus 263-8 (HIV-1)
[8] = biological target: HIV-1 envelope of pseudovirus HIV-16845-2.22 (HIV-1)
[9] = biological target: HIV-1 envelope of pseudovirus CAP210.2.00.E8 (HIV-1)
[10] = biological target: HIV-1 envelope of pseudovirus C2101.c01 (HIV-1)
[11] = biological target: HIV-1 envelope of pseudovirus 928-28 (HIV-1)
[12] = biological target: HIV-1 envelope of pseudovirus ZM135M.PL10a (HIV-1)
[13] = biological target: HIV-1 envelope of pseudovirus 235-47 (HIV-1)
[14] = biological target: HIV-1 envelope of pseudovirus C1080.c03 (HIV-1)
[15] = biological target: HIV-1 envelope of pseudovirus Ce2060_G9 (HIV-1)
[16] = biological target: HIV-1 Env of pseudovirus 6535.3 (HIV-1)
[17] = biological target: HIV-1 Env of pseudovirus C4118.c09 (HIV-1)
[18] = biological target: HIV-1 Env of pseudovirus 191821_E6_1 (HIV-1)
[19] = biological target: HIV-1 Env of pseudovirus BF1266.431a (HIV-1)
[20] = biological target: HIV-1 Env of pseudovirus Ce2010_F5 (HIV-1)
[21] = biological target: HIV-1 Env of pseudovirus BJOX015000.11.5 (HIV-1)
[22] = biological target: HIV-1 envelope of pseudovirus CNE30 (HIV-1)
[23] = biological target: HIV-1 envelope of pseudovirus BJOX025000.01.1 (HIV-1)
[24] = biological target: HIV-1 envelope of pseudovirus Ce1172_H1 (HIV-1)
[25] = biological target: HIV-1 Env of pseudovirus HIV-16845-2.22 (HIV-1)
[26] = biological target: HIV-1 Env of pseudovirus X2131_C1_85 (HIV-1)
[27] = biological target: HIV-1 Env of pseudovirus CNE8 (HIV-1)
[28] = biological target: HIV-1 envelope of pseudovirus BJOX009000.02.4 (HIV-1)
[29] = biological target: HIV-1 envelope of pseudovirus AC10.0.29 (HIV-1)
[30] = biological target: HIV-1 Env of pseudovirus ZM247v1(Rev-) (HIV-1)
[31] = biological target: HIV-1 Env of pseudovirus HIV-001428-2.42 (HIV-1)
[32] = biological target: HIV-1 Env of pseudovirus 231966.c02 (HIV-1)
[33] = biological target: HIV-1 Env of pseudovirus CNE20 (HIV-1)
[34] = biological target: HIV-1 envelope of pseudovirus X1254_c3 (HIV-1)
[35] = biological target: HIV-1 envelope of pseudovirus SC422661.8 (HIV-1)
[36] = biological target: HIV-1 envelope spike of pseudovirus PVO.4 (HIV-1)
[37] = biological target: HIV-1 Env of pseudovirus CNE30 (HIV-1)
[38] = biological target: HIV-1 Env of pseudovirus ZM197M.PB7 (HIV-1)
[39] = biological target: HIV-1 Env of pseudovirus 235-47 (HIV-1)
[40] = biological target: HIV-1 envelope spike of pseudovirus QH0692.42 (HIV-1)
[41] = biological target: HIV-1 Env of pseudovirus 9004SS_A3_4 (HIV-1)
[42] = biological target: HIV-1 Env of pseudovirus Ce703010054_2A2 (HIV-1)
[43] = biological target: HIV-1 Env of pseudovirus YU-2 (HIV-1) (UniProt P35961)
Chain of HIV-1 Env of pseudovirus YU-2 (HIV-1) (P35961 32-843 limits assumed): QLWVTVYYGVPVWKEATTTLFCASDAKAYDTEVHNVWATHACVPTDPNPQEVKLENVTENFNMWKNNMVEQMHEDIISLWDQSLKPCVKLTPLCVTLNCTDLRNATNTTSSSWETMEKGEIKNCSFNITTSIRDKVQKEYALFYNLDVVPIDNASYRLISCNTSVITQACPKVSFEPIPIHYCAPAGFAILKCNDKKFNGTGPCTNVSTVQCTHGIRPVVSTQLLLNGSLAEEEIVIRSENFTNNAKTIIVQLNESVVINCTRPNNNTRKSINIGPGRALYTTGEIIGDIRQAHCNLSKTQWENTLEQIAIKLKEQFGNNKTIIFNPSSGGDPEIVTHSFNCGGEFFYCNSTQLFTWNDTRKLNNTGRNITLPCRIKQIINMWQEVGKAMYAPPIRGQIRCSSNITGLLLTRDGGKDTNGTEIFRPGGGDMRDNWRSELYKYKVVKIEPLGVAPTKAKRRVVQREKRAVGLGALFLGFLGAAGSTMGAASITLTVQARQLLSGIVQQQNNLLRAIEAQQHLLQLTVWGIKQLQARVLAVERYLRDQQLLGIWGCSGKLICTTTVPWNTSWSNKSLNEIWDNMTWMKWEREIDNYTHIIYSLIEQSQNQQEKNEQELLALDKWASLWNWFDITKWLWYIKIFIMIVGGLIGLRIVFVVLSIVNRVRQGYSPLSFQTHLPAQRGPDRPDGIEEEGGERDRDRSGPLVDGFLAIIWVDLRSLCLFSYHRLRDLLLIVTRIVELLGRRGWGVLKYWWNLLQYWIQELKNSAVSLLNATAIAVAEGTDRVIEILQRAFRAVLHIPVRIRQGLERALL

[44] = biological target: HIV-1 Env of pseudovirus CNE19 (HIV-1)
[45] = biological target: HIV-1 Env of pseudovirus 1054_07_TC4_1499 (HIV-1)
[46] = biological target: HIV-1 envelope of pseudovirus 3415.v1.c1 (HIV-1)
[47] = biological target: HIV-1 Env of pseudovirus Q769.d22 (HIV-1)
[48] = biological target: HIV-1 Env of pseudovirus 231965.c01 (HIV-1)
[49] = biological target: HIV-1 envelope of pseudovirus Q769.d22 (HIV-1)
[50] = biological target: HIV-1 envelope of pseudovirus Q259.d2.17 (HIV-1)

Chain of 10-996 (antibody) (VH): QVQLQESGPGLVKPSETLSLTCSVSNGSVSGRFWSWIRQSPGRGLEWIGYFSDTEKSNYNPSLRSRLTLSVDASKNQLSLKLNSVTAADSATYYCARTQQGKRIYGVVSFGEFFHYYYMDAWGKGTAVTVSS
Chain of 10-996 (antibody) (VL): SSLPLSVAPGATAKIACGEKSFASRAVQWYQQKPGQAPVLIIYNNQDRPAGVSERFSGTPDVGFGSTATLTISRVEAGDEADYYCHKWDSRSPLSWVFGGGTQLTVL

With PGT121 (antibody) the IC50 (TZM-bl neutralization assay) [1] was over 40 µg/mL, the IC80 (TZM-bl neutralization assay) [1] was over 40 µg/mL and the IC50 (TZM-bl neutralization) [2] was over 50 µg/mL. It also gave an IC50 (TZM-bl neutralization) [3] of 0.007 µg/mL, an IC80 (TZM-bl neutralization) [4] of over 50 µg/mL and an IC50 (TZM-bl neutralization) [5] of 0.023 µg/mL. For the same substance, the IC80 (TZM-bl neutralization) [6] was over 50 µg/mL, the IC80 (TZM-bl neutralization) [7] was 24.6 µg/mL and the IC50 (TZM-bl neutralization) [8] was 12.7 µg/mL. It also gave an IC50 (TZM-bl neutralization) [9] of 5.08 µg/mL, an IC50 (TZM-bl neutralization) [10] of over 50 µg/mL and an IC50 (TZM-bl neutralization) [11] of over 50 µg/mL. It also gave an IC50 (TZM-bl neutralization) [12] of 0.576 µg/mL, an IC50 (TZM-bl neutralization) [13] of 0.332 µg/mL and an IC50 (TZM-bl neutralization) [14] of over 50 µg/mL. The IC50 (TZM-bl neutralization) [15] was over 50 µg/mL, the IC80 (TZM-bl neutralization) [16] was 0.021 µg/mL and the IC80 (TZM-bl neutralization) [17] was over 50 µg/mL. For the same substance, the IC80 (TZM-bl neutralization) [18] was over 50 µg/mL, the IC80 (TZM-bl neutralization) [19] was over 50 µg/mL and the IC80 (TZM-bl neutralization) [20] was over 50 µg/mL. It also gave an IC80 (TZM-bl neutralization) [21] of over 50 µg/mL, an IC50 (TZM-bl neutralization) [22] of 0.101 µg/mL and an IC50 (TZM-bl neutralization) [23] of over 50 µg/mL. For the same substance, the IC50 (TZM-bl neutralization) [24] was 0.023 µg/mL, the IC80 (TZM-bl neutralization) [25] was over 50 µg/mL and the IC80 (TZM-bl neutralization) [26] was 0.058 µg/mL. It also gave an IC80 (TZM-bl neutralization) [27] of over 50 µg/mL, an IC50 (TZM-bl neutralization) [28] of 3.63 µg/mL and an IC50 (TZM-bl neutralization) [29] of 0.037 µg/mL. It also gave an IC80 (TZM-bl neutralization) [30] of 0.126 µg/mL, an IC80 (TZM-bl neutralization) [31] of 0.156 µg/mL and an IC80 (TZM-bl neutralization) [32] of over 50 µg/mL. It also gave an IC80 (TZM-bl neutralization) [33] of 8 ng/mL, an IC50 (TZM-bl neutralization) [34] of 0.056 µg/mL and an IC50 (TZM-bl neutralization) [35] of 0.101 µg/mL. It also gave an IC50 (TZM-bl neutralization assay) [36] of 0.147 µg/mL, an IC80 (TZM-bl neutralization assay) [36] of 1.1 µg/mL and an IC80 (TZM-bl neutralization) [37] of 0.559 µg/mL. The IC80 (TZM-bl neutralization) [38] was over 50 µg/mL, the IC80 (TZM-bl neutralization) [39] was 1.68 µg/mL and the IC50 (TZM-bl neutralization assay) [40] was 1.08 µg/mL. For the same substance, the IC80 (TZM-bl neutralization) [41] was 0.026 µg/mL, the IC80 (TZM-bl neutralization) [42] was over 50 µg/mL and the IC80 (TZM-bl neutralization) [43] was 0.356 µg/mL. The IC80 (TZM-bl neutralization) [44] was 0.189 µg/mL, the IC80 (TZM-bl neutralization) [45] was 0.696 µg/mL and the IC50 (TZM-bl neutralization) [46] was over 50 µg/mL. It also gave an IC80 (TZM-bl neutralization) [47] of over 50 µg/mL, an IC80 (TZM-bl neutralization) [48] of over 50 µg/mL and an IC50 (TZM-bl neutralization) [49] of over 50 µg/mL. It also gave an IC50 (TZM-bl neutralization) [50] of 8.99 µg/mL.

Substance 10-996 (antibody) has an IC50 (TZM-bl neutralization assay) [1] of over 40 µg/mL, an IC80 (TZM-bl neutralization assay) [1] of over 40 µg/mL and an IC50 (TZM-bl neutralization) [2] of over 50 µg/mL. It also gave an IC50 (TZM-bl neutralization) [3] of 0.018 µg/mL, an IC80 (TZM-bl neutralization) [4] of over 50 µg/mL and an IC50 (TZM-bl neutralization) [5] of over 50 µg/mL. It also gave an IC80 (TZM-bl neutralization) [6] of over 50 µg/mL, an IC80 (TZM-bl neutralization) [7] of over 50 µg/mL and an IC50 (TZM-bl neutralization) [8] of 1.32 µg/mL. The IC50 (TZM-bl neutralization) [9] was 24.8 µg/mL, the IC50 (TZM-bl neutralization) [10] was over 50 µg/mL and the IC50 (TZM-bl neutralization) [11] was 1.33 µg/mL. It also gave an IC50 (TZM-bl neutralization) [12] of 0.099 µg/mL, an IC50 (TZM-bl neutralization) [13] of 0.128 µg/mL and an IC50 (TZM-bl neutralization) [14] of over 50 µg/mL. The IC50 (TZM-bl neutralization) [15] was over 50 µg/mL, the IC80 (TZM-bl neutralization) [16] was 0.046 µg/mL and the IC80 (TZM-bl neutralization) [17] was over 50 µg/mL. For the same substance, the IC80 (TZM-bl neutralization) [18] was over 50 µg/mL, the IC80 (TZM-bl neutralization) [19] was over 50 µg/mL and the IC80 (TZM-bl neutralization) [20] was over 50 µg/mL. For the same substance, the IC80 (TZM-bl neutralization) [21] was over 50 µg/mL, the IC50 (TZM-bl neutralization) [22] was 0.614 µg/mL and the IC50 (TZM-bl neutralization) [23] was over 50 µg/mL. It also gave an IC50 (TZM-bl neutralization) [24] of 0.058 µg/mL, an IC80 (TZM-bl neutralization) [25] of 9.93 µg/mL and an IC80 (TZM-bl neutralization) [26] of 0.085 µg/mL. For the same substance, the IC80 (TZM-bl neutralization) [27] was over 50 µg/mL, the IC50 (TZM-bl neutralization) [28] was over 50 µg/mL and the IC50 (TZM-bl neutralization) [29] was 0.067 µg/mL. It also gave an IC80 (TZM-bl neutralization) [30] of 0.252 µg/mL, an IC80 (TZM-bl neutralization) [31] of 0.204 µg/mL and an IC80 (TZM-bl neutralization) [32] of over 50 µg/mL. It also gave an IC80 (TZM-bl neutralization) [33] of under 1 ng/mL, an IC50 (TZM-bl neutralization) [34] of 0.121 µg/mL and an IC50 (TZM-bl neutralization) [35] of 0.173 µg/mL. It also gave an IC50 (TZM-bl neutralization assay) [36] of 0.211 µg/mL, an IC80 (TZM-bl neutralization assay) [36] of 1.72 µg/mL and an IC80 (TZM-bl neutralization) [37] of 1.99 µg/mL. It also gave an IC80 (TZM-bl neutralization) [38] of over 50 µg/mL, an IC80 (TZM-bl neutralization) [39] of 0.381 µg/mL and an IC50 (TZM-bl neutralization assay) [40] of 0.395 µg/mL. For the same substance, the IC80 (TZM-bl neutralization assay) [40] was 1.4 µg/mL, the IC80 (TZM-bl neutralization) [41] was 0.05 µg/mL and the IC80 (TZM-bl neutralization) [42] was over 50 µg/mL. The IC80 (TZM-bl neutralization) [43] was 0.891 µg/mL, the IC80 (TZM-bl neutralization) [44] was over 50 µg/mL and the IC80 (TZM-bl neutralization) [45] was 0.901 µg/mL. It also gave an IC50 (TZM-bl neutralization) [46] of 35.9 µg/mL, an IC80 (TZM-bl neutralization) [47] of over 50 µg/mL and an IC80 (TZM-bl neutralization) [48] of over 50 µg/mL. For the same substance, the IC50 (TZM-bl neutralization) [49] was over 50 µg/mL and the IC50 (TZM-bl neutralization) [50] was over 50 µg/mL.
